Measured values published in article PMC4615104 (Cell Cycle, 2015).
Each block holds one binder with its values, some of them ahead of it.

Molecular target: recombinant hMDM2 (human, UniProt Q00987 1-491)
Test: ELISA

Chain of recombinant hMDM2 (Q00987 whole entry): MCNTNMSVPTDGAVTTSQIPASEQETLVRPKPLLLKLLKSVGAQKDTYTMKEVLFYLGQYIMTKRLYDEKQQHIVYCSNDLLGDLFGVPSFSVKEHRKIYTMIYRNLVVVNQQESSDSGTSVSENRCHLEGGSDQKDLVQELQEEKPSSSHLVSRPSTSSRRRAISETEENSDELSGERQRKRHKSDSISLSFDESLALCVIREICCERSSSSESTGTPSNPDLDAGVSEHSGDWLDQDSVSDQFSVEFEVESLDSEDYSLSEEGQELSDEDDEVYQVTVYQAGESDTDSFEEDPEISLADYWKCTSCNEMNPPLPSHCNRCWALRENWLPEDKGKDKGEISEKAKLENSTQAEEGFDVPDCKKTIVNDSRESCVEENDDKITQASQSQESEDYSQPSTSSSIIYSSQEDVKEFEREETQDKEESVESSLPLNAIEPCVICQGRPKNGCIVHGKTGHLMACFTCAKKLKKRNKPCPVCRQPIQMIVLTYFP

- binding result: binds
B1: recombinant hMDMX^p60 (natural protein)
chain: MDIPSQDQLKQSAEESSTSRKRTTEDDIPTLPTSEHKCIHSREDEDLIENLAQDETSRLDLGFEEWDVAGLPWWFLGNLRSNYTPRSNGSTDLQTNQDVGTAIVSDTTDDLWFLNESVSEQLGVGIKVEAADTEQTSEEVGKVSDKKVIEVGKNDDLEDSKSLSDDTDVEVTSEDEWQCTECKKFNSPSKRYCFRCWALRKDWYSDCSKLTHSLSTSDITAIPEKENEGNDVPDCRRTISAPVVRPKDAYIKKENSKLFDPCNSVEFLDLAHSSESQETISSMGEQLDNLSEQRTDTENMEDCQNLLKPCSLCEKRPRDGNIIHGRTGHLVTCFHCARRLKKAGASCPICKKEIQLVIKVFIA

- binding result: binds
B2: recombinant hMDMX^FL (natural protein)
chain: MTSFSTSAQCSTSDSACRISPGQINQVRPKLPLLKILHAAGAQGEMFTVKEVMHYLGQYIMVKQLYDQQEQHMVYCGGDLLGELLGRQSFSVKDPSPLYDMLRKNLVTLATATTDAAQTLALAQDHSMDIPSQDQLKQSAEESSTSRKRTTEDDIPTLPTSEHKCIHSREDEDLIENLAQDETSRLDLGFEEWDVAGLPWWFLGNLRSNYTPRSNGSTDLQTNQDVGTAIVSDTTDDLWFLNESVSEQLGVGIKVEAADTEQTSEEVGKVSDKKVIEVGKNDDLEDSKSLSDDTDVEVTSEDEWQCTECKKFNSPSKRYCFRCWALRKDWYSDCSKLTHSLSTSDITAIPEKENEGNDVPDCRRTISAPVVRPKDAYIKKENSKLFDPCNSVEFLDLAHSSESQETISSMGEQLDNLSEQRTDTENMEDCQNLLKPCSLCEKRPRDGNIIHGRTGHLVTCFHCARRLKKAGASCPICKKEIQLVIKVFIA
